The nanobody polyreactivity screen of Harvey et al. (2022)

Assay: yeast display, Sf9 membrane polyspecificity reagent, FACS + sequencing; frameworks hold sequencing errors
Summary of the method: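 Using colony PCR, genes from sorted yeast display clones were amplified, then sequenced on MiSeq at 2 × 250 and filtered by CDR length. The clones had been stained with 10% biotinylated, detergent-solubilized Sf9 membrane reagent for 1 hour at 4 °C and sorted by FACS into low and high (top ~1%) gates on anti-HA and streptavidin fluorescence. Polyreactivity labels come from the gate of origin.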

Row | Sequence | polyreactivity (PSR sort gate)
1 | QVQLVESGGGLVQAGGSLRLSCAASGIIIRKYAMGWYRQAPGKERELVAAITTRGSRTYYADSVKGRFTISRDNAKNTVYFEMNSLKPEDTAVYYCAADFGYAWWWYDTYGYWGQGTQVTVSS | high polyreactivity
2 | QVQLVESGGGLVQAGGSLRLSCAASGIIIRKYAMGWYRQAPGKERELVAAITTRGSRTYYADSVKGRFTISRDNAKNTVYLQMNSLKPEDTAVYYCAADFGYAWWWYDTYGYWGQGTQVTVSS | high polyreactivity
3 | QVQLVESGGGLVQAGGSLRLSCAASGIIISLYAMGWYSQAPGKERELVATISTGGGTYYADSVKGRFTISRDNAKNTVYLQINSLKPEDTAVYYCAARRSYYGRSYYYWGQGTQVTVSS | high polyreactivity
4 | QVQLVESGGGLVQAGGSLRLSCAASGIIIWTNVMGWYRQAPGKEREFVAAISRSGGSTYYADSVKGRFTISRDNAKNTVYLQMNSLKPEDTAVYYCAARLSYSVQKFDYWGQGTQVTVSS | high polyreactivity
5 | QVQLVESGGGLVQAGGSLRLSCAASGIIIYNYTMGWYRQAPGKERELVAAISRSGGRTYYADSVKGRFTISRDNAKNNVYLQMNSLKPEDTAVYYCAAAGYYHTYWGTMDFWGQGTQVTVSS | high polyreactivity
6 | QVQLVESGGGLVQAGGSLRLSCAASGIILAHYAMGWYRQAPGKERELVAGISRSGTRTYYADSVKGRFTISRDNAKNTVYLQMNSLKPEDTAVYYCNKDAYTYWYFEMGYWGQGTQVTVSS | high polyreactivity
7 | QVQLVESGGGLVQAGGSLRLSCAASGIILATYAMGLYRQAPGKEMELVAAISWSGGRTYYADSVKGRFTISRDKAKNTVYLQMNSLKPEDTAVYYCNAAYPAYGRTQYGRYDYWGQGTQVTVSS | high polyreactivity
8 | QVQLVESGGGLVQAGGSLRLSCAASGIILGSYAMGWYRQAPGTERELVAGITSGGGTYYADSVKGRFTISRDNAKNTVYLQMNSLKPEDTAVYYCAKLYFHYYRYGYWGQGTQVTVSS | low polyreactivity
9 | QVQLVESGGGLVQAGGSLRLSCAASGIILHGYAMGWYRQAAGKEREFVATITVSGSSTYYADSVKGRFTISRDNAKNTVYLQMNSLKPEDTAVYYCAARSWVIVYGLQYDYWGQGTQETVSS | high polyreactivity
10 | QVQLVESGGGLVQAGGSLRLSCAASGIILIHNAMGWYRQARGKERELVAAISTRGGRTYYADSVKGRFTISRDNAKNTVYLQMNSLKPEDTAVYYCAAYRTTPYRDYKMDYLGQGTQVTVSS | high polyreactivity
11 | QVQLVESGGGLVQAGGSLRLSCAASGIILKRNAMGWYRQAPGKERELVAAITSGGTTSYADSVKGRFTISRDNAKNTVYLQLNSLKPEDTAVYYCATRKPVSVYRFAPVYKNSNYWGQGTQVTVSS | high polyreactivity
12 | QVQLVESGGGLVQAGGSLRLSCAASGIILPTYVMGWYRQAPGKERELVAAISRRGGSTYYADSVKGRFTISRDNAKNTVYLQMNSLKPEDTAVYYCNAVSNPVGSAYDYWGQGTQVTVSS | high polyreactivity
13 | QVQLVESGGGLVQAGGSLRLSCAASGIILPYYAMGWYRPAPGKEREFVATISSDGTSTYYADSVKGRFTISRDNAKNTVYLQMNSLKPEDTAVYYCDARIRQNPGGDNSWGQGTQVTVSS | low polyreactivity
14 | QVQLVESGGGLVQAGGSLRLSCAASGIILPYYAMGWYRQAPGKEREFVATISSDGTSTYYADSVKGRFTISRDNAKNTVYLQMNSLKPEDTAVYYCAARIRQNPGGDNSWGQGTQVTVSS | low polyreactivity
15 | QVQLVESGGGLVQAGGSLRLSCAASGIILQKYTMGWYRQAPGKERELVAASTRSGGSTYYADSVKGRFTISRDNAKNTVYLQMNSLKPEDTAVYYCYGYEYWGQGTQVTVSS | high polyreactivity
16 | QVQLVESGGGLVQAGGSLRLSCAASGIILVAYAMGWYRPAPGKERELVAAITTSGTSTYYADSVKGRFTISRDNAKNTVYVQMNSLTPEDTAVYYCAVRQRYGPARYDYWGQGTQVTVSS | high polyreactivity
17 | QVQLVESGGGLVQAGGSLRLSCAASGIILYDYAMGWYRQAPGKERELVAGINRSGGITYYADSVKGRFTISRDNAKNTVYLQMNSLKPEDTAVYYCNAVFRYGATRSYRYDYWGQGTQVTVSS | high polyreactivity
